# Target: acetylcholine receptor (Homo sapiens, UniProt P02708)
# Assay: SPR binding affinity (RU) of optimized 5mer/6mer/7mer peptides, Examples 6-7
# Conditions: 6mer-1 Top sequence; SPR; peptides tested at 10 μM
# In short: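 Synthetic 5mer and 6mer peptides, built from frequent or infrequent amino-acid combinations, were tested at 10 μM for binding to the human acetylcholine receptor by surface plasmon resonance. Binding is reported in response units (RU).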
# acetylcholine receptor, sequence (P02708 21-457): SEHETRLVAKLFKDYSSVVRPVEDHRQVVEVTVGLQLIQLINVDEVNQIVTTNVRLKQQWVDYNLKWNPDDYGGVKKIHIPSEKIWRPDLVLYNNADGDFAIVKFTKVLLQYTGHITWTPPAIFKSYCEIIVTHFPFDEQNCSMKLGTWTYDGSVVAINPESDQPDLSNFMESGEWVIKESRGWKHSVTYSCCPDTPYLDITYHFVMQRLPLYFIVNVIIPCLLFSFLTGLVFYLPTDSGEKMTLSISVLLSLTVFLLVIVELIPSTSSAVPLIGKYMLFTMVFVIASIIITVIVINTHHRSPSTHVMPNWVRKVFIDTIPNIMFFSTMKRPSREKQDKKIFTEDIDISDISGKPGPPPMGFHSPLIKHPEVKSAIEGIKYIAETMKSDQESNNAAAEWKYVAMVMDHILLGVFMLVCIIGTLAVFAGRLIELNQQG
row,Substance,Binding affinity
1,6mer-1-266 (KKGRLK),144 Ru
2,6mer-1-255 (KKGFQK),139 Ru
3,6mer-1-254 (RKSLSK),137 Ru
4,6mer-1-226 (RRWITR),128 Ru
5,6mer-1-272 (KKQVSR),139 Ru

# Same assay, conditions: 6mer-2 Top sequence; SPR; peptides tested at 10 μM
row,Substance,Binding affinity
1,6mer-2-139 (KLFRKK),149 Ru
2,6mer-2-32 (RRLCRK),139 Ru
3,6mer-2-96 (KWRQRK),154 Ru
4,6mer-2-129 (KSVLRK),139 Ru
5,6mer-2-184 (KWVSRR),136 Ru
6,6mer-2-92 (KVVCKR),131 Ru
7,6mer-2-63 (KSFRKR),121 Ru
8,6mer-2-66 (RVIRRR),123 Ru
9,6mer-2-10 (KVFSKK),124 Ru
10,6mer-2-107 (RGVYRK),144 Ru
11,6mer-2-27 (KVIRRK),128 Ru
12,6mer-2-165 (KWFTRR),139 Ru

# Same assay, conditions: SPR, Resonance Units; 5mer Bottom sequence (bottom combinations); peptides tested at 10 μM
row,Substance,Binding affinity
1,5mer-971 (KMTGK),12 Ru
2,5mer-764 (KTWPK),19 Ru
3,5mer-982 (KFMHK),12 Ru
4,5mer-1073 (RDEAK),29 Ru
5,5mer-704 (RFMGK),28 Ru
6,5mer-1049 (KPPGR),29 Ru
7,5mer-730 (KFCNK),27 Ru
8,5mer-601 (RFCFK),13 Ru
9,5mer-973 (RYWAR),12 Ru
10,5mer-965 (KMEIR),30 Ru
11,5mer-998 (RCTAK),18 Ru

# Same assay, conditions: SPR, Resonance Units; peptides tested at 10 μM; 6mer-1 Bottom sequence
row,Substance,Binding affinity
1,6mer-1-1083 (KKNAVR),36 Ru
2,6mer-1-1184 (RRDTVK),30 Ru
3,6mer-1-1041 (RKEHGK),23 Ru
4,6mer-1-1162 (KKCDHR),41 Ru
5,6mer-1-1064 (RKPTAK),41 Ru
6,6mer-1-1094 (RRMAIK),42 Ru
7,6mer-1-1189 (KKCHWR),40 Ru
8,6mer-1-1136 (KKIEIK),34 Ru
9,6mer-1-1191 (RKYTKK),39 Ru

# Same assay, conditions: SPR, Resonance Units; peptides tested at 10 μM; 6mer-1 Bottom sequence (Table 11)
row,Substance,Binding affinity
1,6mer-1-685 (RRESWK),14 Ru
2,6mer-1-616 (KKNTIK),31 Ru
3,6mer-1-639 (KRPNVR),24 Ru
4,6mer-1-779 (RRPDAR),30 Ru
5,6mer-1-669 (KRNMAK),23 Ru
6,6mer-1-796 (RRHAFK),28 Ru
7,6mer-1-756 (RKAKMK),33 Ru
8,6mer-1-649 (RRIAGK),32 Ru
9,6mer-1-674 (RKHPKK),32 Ru

# Same assay, conditions: SPR, Resonance Units; peptides tested at 10 μM; 6mer-2 Bottom sequence
row,Substance,Binding affinity
1,6mer-2-952 (KYWGRR),24 Ru
2,6mer-2-830 (RMKFKR),21 Ru
3,6mer-2-800 (RTAWKK),11 Ru
4,6mer-2-935 (KKCNKK),22 Ru
5,6mer-2-771 (KITARR),26 Ru
6,6mer-2-628 (RKSFKR),30 Ru
7,6mer-2-655 (KIWFRR),31 Ru
8,6mer-2-636 (KMAPKR),21 Ru
9,6mer-2-956 (KFCWRR),28 Ru
10,6mer-2-901 (RYWDRK),34 Ru
11,6mer-2-789 (KNENRK),24 Ru
12,6mer-2-850 (KTSMKR),16 Ru
13,6mer-2-895 (KYMAKK),28 Ru
14,6mer-2-849 (RNTAKK),13 Ru
15,6mer-2-730 (RNTHKR),26 Ru
16,6mer-2-813 (KKMDRR),29 Ru
17,6mer-2-883 (RTNEKR),22 Ru
18,6mer-2-991 (KCHFRR),30 Ru
19,6mer-2-764 (RNAVKK),31 Ru

# Same assay, conditions: SPR, Resonance Units; peptides tested at 10 μM; 6mer-2 Top sequence
row,Substance,Binding affinity
1,6mer-2-534 (RVQLRR),139 Ru
2,6mer-2-580 (KWQQRR),121 Ru
3,6mer-2-529 (KQQRKR),124 Ru
4,6mer-2-560 (RQYTRR),153 Ru
5,6mer-2-564 (KQVYRK),148 Ru
6,6mer-2-577 (KRVQRR),139 Ru
7,6mer-2-590 (KGRLRK),148 Ru
8,6mer-2-546 (RVFTKK),127 Ru
9,6mer-2-432 (KVVRKR),148 Ru

# Same assay, conditions: SPR, Resonance Units; peptides tested at 10 μM; 6mer-2 Top sequence (Table 12)
row,Substance,Binding affinity
1,6mer-2-352 (RWFYRR),137 Ru
2,6mer-2-285 (RRIQRR),142 Ru
3,6mer-2-238 (RRRRRK),142 Ru
4,6mer-2-259 (RVQSKR),128 Ru
5,6mer-2-329 (RVYTKR),142 Ru

# Same assay, conditions: SPR, peptides at 10 μM; 6mer-2 Bottom sequence
row,Substance,Binding affinity
1,6mer-2-1125 (RDAFKK),30 Ru
2,6mer-2-1051 (RKHMRR),24 Ru
3,6mer-2-1079 (KCNEKK),40 Ru
4,6mer-2-1188 (RAPARR),22 Ru
5,6mer-2-998 (KEMWKK),43 Ru
6,6mer-2-1182 (RHNDKR),30 Ru
7,6mer-2-996 (RHDARK),40 Ru
8,6mer-2-1193 (REKIRR),43 Ru
9,6mer-2-1026 (KENHRK),33 Ru
10,6mer-2-1027 (KTPVKK),32 Ru

# Same assay, conditions: SPR, peptides tested at 10 μM; 5mer Top sequence
row,Substance,Binding affinity
1,5mer-320 (RVVQR),75 Ru
2,5mer-199 (KRYQR),84 Ru
3,5mer-178 (RRVLK),87 Ru
4,5mer-367 (RSVQK),71 Ru
5,5mer-118 (RVICK),87 Ru
6,5mer-98 (KWYCK),68 Ru
7,5mer-502 (RRISR),84 Ru
8,5mer-124 (KGFSK),58 Ru
9,5mer-158 (RWQTK),65 Ru
10,5mer-204 (RQFQR),84 Ru
11,5mer-173 (RSVSR),59 Ru
12,5mer-144 (KRFSK),58 Ru
13,5mer-150 (RVRTR),64 Ru
14,5mer-41 (KVISK),82 Ru
15,5mer-408 (KVFRK),74 Ru

# Same assay, conditions: SPR, peptides tested at 10 μM; 5mer Top sequence (top combinations)
row,Substance,Binding affinity
1,5mer-250 (RQFSR),76 Ru
2,5mer-229 (KGLTR),84 Ru
3,5mer-295 (RGRCR),52 Ru
4,5mer-536 (RLITK),78 Ru
5,5mer-599 (KWVSR),61 Ru
6,5mer-590 (KQYTK),81 Ru
7,5mer-278 (RWQRR),66 Ru
8,5mer-243 (KLLSK),51 Ru
9,5mer-572 (KLRTK),58 Ru
10,5mer-560 (KWYQR),59 Ru

# Same assay, conditions: SPR, peptides tested at 10 μM; 6mer-1 Bottom sequence (Table 11)
row,Substance,Binding affinity
1,6mer-1-934 (KRPPGK),39 Ru
2,6mer-1-827 (RKKKFR),30 Ru
3,6mer-1-847 (KKYNHK),20 Ru
4,6mer-1-995 (KRCHHR),33 Ru
5,6mer-1-963 (RREEDK),29 Ru
6,6mer-1-823 (KRHTGK),12 Ru
7,6mer-1-834 (KRNTIR),17 Ru

# Same assay, conditions: SPR, peptides tested at 10 μM; 6mer-1 Top sequence
row,Substance,Binding affinity
1,6mer-1-532 (KKSQLR),121 Ru
2,6mer-1-478 (RKVRYK),139 Ru
3,6mer-1-567 (KKRVSR),136 Ru
4,6mer-1-531 (RKGQTK),135 Ru
5,6mer-1-419 (KRGFYR),148 Ru
6,6mer-1-486 (KRQVRK),151 Ru
7,6mer-1-414 (KRSFLR),153 Ru

# Same assay, conditions: SPR, peptides tested at 10 μM; 6mer-1 Top sequence (top combinations)
row,Substance,Binding affinity
1,6mer-1-94 (RKVQQK),142 Ru
2,6mer-1-136 (RRWLYK),148 Ru
3,6mer-1-189 (KKSYSK),137 Ru
4,6mer-1-25 (KKLIRR),135 Ru
5,6mer-1-40 (KRSQYK),121 Ru
6,6mer-1-160 (RRVIQR),149 Ru
7,6mer-1-132 (RRQVYR),153 Ru
8,6mer-1-75 (RRQYQK),139 Ru
9,6mer-1-167 (RRRYQR),122 Ru
10,6mer-1-66 (KKSISR),147 Ru
11,6mer-1-5 (KRQIRK),135 Ru

# Same assay, conditions: SPR; XRRGVRR-7mer and RRGVRRX-7mer
row,Substance,"Binding affinity, values relative to the RRGVRR sequence"
1,3658 (HRRGVRR) [compound 3658],160
2,3666 (RRGVRRL) [compound 3666],146
3,3676 (RRGVRRK) [compound 3676],171
4,3652 (TRRGVRR) [compound 3652],105

# Same assay, conditions: SPR; peptides tested at 10 μM; 5mer Bottom sequence
row,Substance,Binding affinity
1,5mer-851 (KMCWK),19 Ru
2,5mer-834 (RMNIK),15 Ru
3,5mer-888 (KKCIR),31 Ru
4,5mer-1180 (KETAK),27 Ru
5,5mer-832 (RMHER),18 Ru
6,5mer-1116 (KECFR),24 Ru
7,5mer-867 (KDSWK),14 Ru
8,5mer-856 (KPPDR),23 Ru

# From patent US20250011363A1, “OPTIMIZED SHORTENED PEPTIDE THAT BINDS TO ACETYLCHOLINE RECEPTOR, AND USE THEREOF” (SKINMED CO., LTD., priority 2021, published 2025)
